Experiment [1] concerns the target T1, human PAR4 (protease activated receptor 4) (human, UniProt Q96RI0 48-385).
T1 sequence (looked up): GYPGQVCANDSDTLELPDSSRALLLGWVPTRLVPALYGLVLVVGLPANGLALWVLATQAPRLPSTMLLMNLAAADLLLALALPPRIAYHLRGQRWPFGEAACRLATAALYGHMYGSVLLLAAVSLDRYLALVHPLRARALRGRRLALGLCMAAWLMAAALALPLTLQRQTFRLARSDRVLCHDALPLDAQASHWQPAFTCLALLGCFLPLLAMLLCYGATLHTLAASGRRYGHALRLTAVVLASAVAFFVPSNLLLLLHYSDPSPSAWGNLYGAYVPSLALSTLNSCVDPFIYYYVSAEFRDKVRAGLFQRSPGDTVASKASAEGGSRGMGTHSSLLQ
In words: cell-based or functional assay.

For experiment [2], the target named is T2, PAR1 (protease activated receptor 1), endogenous in HEK293 cells (UniProt P25116 42-425, limits assumed).
T2 sequence (looked up): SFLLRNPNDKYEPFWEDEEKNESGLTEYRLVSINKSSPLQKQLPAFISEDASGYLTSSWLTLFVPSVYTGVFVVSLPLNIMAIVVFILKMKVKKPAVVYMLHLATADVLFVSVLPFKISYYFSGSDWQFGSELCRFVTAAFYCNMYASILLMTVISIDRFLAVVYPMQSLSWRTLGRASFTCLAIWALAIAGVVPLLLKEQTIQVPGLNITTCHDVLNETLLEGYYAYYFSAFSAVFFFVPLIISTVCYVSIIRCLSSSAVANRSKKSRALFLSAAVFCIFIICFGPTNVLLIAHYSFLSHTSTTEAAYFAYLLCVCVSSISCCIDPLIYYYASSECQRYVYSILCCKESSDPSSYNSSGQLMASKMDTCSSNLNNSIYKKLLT
Briefly: cell-based or functional assay.

B1: PAR4 agonist peptide SEQ ID NO: 2 (peptide)
peptide: AYPGWLVKNG
modifications: free N-terminus; C-terminal amide
For the molecule B1, in experiment [1], the “EC50 (µM) FLIPR Assay” value turned out to be 4.8 µM.

B2: Peptide SEQ ID NO: 11 (peptide)
peptide: AYPGQVCAND
Regarding B2, in experiment [1], the “EC50 (µM) FLIPR Assay” value came to 159 µM.

B3: Peptide SEQ ID NO: 10 (peptide)
peptide: AYPG
Take B3: the “EC50 (µM) FLIPR Assay” value in experiment [1] came to 600 µM.

B4: SFFLRR (SEQ ID NO: 35) (peptide)
peptide: SFFLRR
On to B4, for which the “EC50, calcium mobilization (FLIPR/FDSS) in HEK293 PAR4 cells, PAR1 counter screen” value in experiment [2] came to 0.6 µM.

The values above are taken from patent US20150158910A1 (Bristol-Myers Squibb, published 2015).
